Results from patent US20210156867A1.

Target: mouse recombinant His-calmodulin, calcium-bound (mouse), P0DP26

INLKALAALAKKIL (modifications not checked) [Mastoparan, P01514 1-14]
Kd: 1.2 nM
